Target: histone H3 of calf thymus core histones (bovine (calf thymus), UniProt P68432 1-136)
Assay: cell-based or functional assay

B1: GST-MOZ DPF-MYST (194–810) (enzyme)
chain: LPHEKDKPVAEPIPICSFCLGTKEQNREKKPEELISCADCGNSGHPSCLKFSPELTVRVKALRWQCIECKTCSSCRDQGKNADNMLFCDSCDRGFHMECCDPPLTRMPKGMWICQICRPRKKGRKLLQKKAAQIKRRYTNPIGRPKNRLKKQNTVSKGPFSKVRTGPGRGRKRKITLSSQSASSSSEEGYLERIDGLDFCRDSNVSLKFNKKTKGLIDGLTKFFTPSPDGRKARGEVVDYSEQYRIRKRGNRKSSTSDWPTDNQDGWDGKQENEERLFGSQEIMTEKDMELFRDIQEQALQKVGVTGPPDPQVRCPSVIEFGKYEIHTWYSSPYPQEYSRLPKLYLCEFCLKYMKSRTILQQHMKKCGWFHPPANEIYRKNNISVFEVDGNVSTIYCQNLCLLAKLFLDHKTLYYDVEPFLFYVLTQNDVKGCHLVGYFSKEKHCQQKYNVSCIMILPQYQRKGYGRFLIDFSYLLSKREGQAGSPEKPLSDLGRLSYMAYWKSVILECLYHQNDKQISIKKLSKLTGICPQDITSTLHHLRMLDFRSDQFVIIRREKLIQDHMAKLQLNLRPVDVDPECLRWTPVIVSNSVVSEEEEEEAEEGENEEPQCQERELE
- initial rate of acetylation of core histones in time course HAT assays, DPF-MYST (194–810) against the MYST domain (510–810) alone: ≥ 8 fold
